In publication PMC6969876, “NADPH biosensor-based identification of an alcohol dehydrogenase variant with improved catalytic properties caused by a single charge reversal at the protein surface” (AMB Express, 2020):
Residue numbers refer to the chain shown, from its start. Names and notes keep the numbering of the source.

B1: LbADH (Levilactobacillus brevis) (protein)
chain: SNRLDGKVAIITGGTLGIGLAIATKFVEEGAKVMITGRHSDVGEKAAKSVGTPDQIQFFQHDSSDEDGWTKLFDATEKAFGPVSTLVNNAGIAVNKSVEETTTAEWRKLLAVNLDGVFFGTRLGIQRMKNKGLGASIINMSSIEGFVGDPSLGAYNASKGAVRIMSKSAALDCALKDYDVRVNTVHPGYIKTPLVDDLPGAEEAMSQRTKTPMGHIGEPNDIAYICVYLASNESKFATGSEFVVDGGYTAQ
B2: LbADH (Levilactobacillus brevis; K72E) (protein)
chain: B1 chain with K71E

How the values were obtained:
purified protein [1] = substrate: CC(=O)CCC(C)=O; assay: purified protein; assay type: biochemical, Levilactobacillus brevis; details: 0.3 mM NADPH, 1 mM MgCl2, 50 mM TEA pH 7.0, 30 °C
purified protein [2] = substrate: COC(=O)CC(C)=O; assay: purified protein; assay type: biochemical, Levilactobacillus brevis; details: 0.3 mM NADPH, 1 mM MgCl2, 50 mM TEA pH 7.0, 30 °C

Row | Protein | Km (purified protein [1]) | Vmax (purified protein [1]) | Km (purified protein [2]) | Vmax (purified protein [2])
1 | B1 | 5.1 ± 0.6 mM | 148 µmol/min/mg | 1.13 ± 0.06 mM | 154 µmol/min/mg
2 | B2 | 4.3 ± 0.5 mM | 173 µmol/min/mg | 0.67 ± 0.04 mM | 221 µmol/min/mg
